In article PMC10244696, “Thioredoxin TRXo1 is involved in ABA perception via PYR1 redox regulation” (Redox Biology, 2023):
Numbering of substitutions follows the chain as printed. Values belong to the binder of their own block, whether it stands above or below them.

Legend:
[1] = target: T1, PYR1 in Arabidopsis leaf extracts (Arabidopsis thaliana (endogenous in Col-0 leaves)), O49686; assay: non-reducing SDS-PAGE and Western blot of oligomeric forms; leaf extracts of Arabidopsis, anti-PYR1; wild type extract without blocking or alkylating agent, also with 50 mM DTT or 4 mM H2O2 added; WT, KO and OEX Attrxo1 plants with or without 10 μM ABA for 48 h (extracts with 5 mM NEM); details: remark: other sources report otherwise
T1 chain: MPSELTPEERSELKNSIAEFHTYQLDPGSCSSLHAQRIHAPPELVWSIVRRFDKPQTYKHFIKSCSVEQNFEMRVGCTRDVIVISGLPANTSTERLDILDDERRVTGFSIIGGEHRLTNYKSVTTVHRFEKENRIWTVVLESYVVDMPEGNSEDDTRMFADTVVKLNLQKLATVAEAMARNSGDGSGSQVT

[2] = target: the molecule itself; assay: SDS-PAGE and Western blot of oligomeric forms; recombinant HisAtPYR1 or its Cys mutants in 20 mM Tris-HCl pH 7.9, untreated, with 4 mM H2O2, or 2 mM DTT and then 4 mM H2O2 (30 min, room temperature); 2.5 μg on SDS-PAGE, anti-AtPYR1
[3] = target: T2, recombinant HisAtPYR1 (Arabidopsis thaliana), O49686; assay: as above; details: remark: other sources report otherwise
T2 chain: T1 chain

stoichiometry N [1]: 2
B1: PYR1 in Arabidopsis leaf extracts, O49686 1-191 (receptor)
chain: T1 chain

B2: HisAtPYR1C77S (receptor, Arabidopsis thaliana, UniProt O49686 1-191, looked up)
chain: T1 chain with C77S
notes: PYR1 of Arabidopsis thaliana (At4g17870) with Cys77 replaced by Ser; cloned in NcoI/EcoRI of pETM11; source: E. coli BL21, purified (Ni-NTA agarose)
amount of dimers, fold of PYR1 [2]: 0.6 fold

B3: HisAtPYR1C65S (receptor, Arabidopsis thaliana, UniProt O49686 1-191, looked up)
chain: T1 chain with C65S
notes: PYR1 of Arabidopsis thaliana (At4g17870) with Cys65 replaced by Ser; cloned in NcoI/EcoRI of pETM11; source: E. coli BL21, purified (Ni-NTA agarose)
amount of dimers, fold of PYR1 [2]: 2.3 fold

stoichiometry N [3]: 2
B4: recombinant HisAtPYR1, O49686 1-191 (receptor)
chain: T1 chain

B5: HisAtPYR1C30S (receptor, Arabidopsis thaliana, UniProt O49686 1-191, looked up)
chain: T1 chain with C30S
notes: PYR1 of Arabidopsis thaliana (At4g17870) with Cys30 replaced by Ser; cloned in NcoI/EcoRI of pETM11; source: E. coli BL21, purified (Ni-NTA agarose)
amount of dimers, fold of PYR1 [2]: 0.3 fold
